Measurements: the DeepSol protein solubility set

Assay: soluble on expression in E. coli; label from the status in PepcDB or PDB records

Sequence	soluble on expression in E. coli
GSRATVFKLGLFKSLFLCSFHDITRLFKNDKTTNQQWVLAVFGLAEVFFEASFELLKKQCSFLQMQKRSHEGGTCAVYLICFNTAKSRETVRNLMANMLNVREECLMLQPPKIRGLSAALFWFKSSLSPATLKHGALPEWIRAQTTLN	soluble
GKKCFLTVRGNFSWNEDKIIENDDPRVQYPWMEKRGTNVNGRWGWIAEGLFTSEEEIMDHAKQFGEGHPGQISKVGDIKYKDLNGDGVIDDYDKCLIGQGDVPKIYYGFGADLQLGDFSVGALFAGNAKADRCLGGNAMYPFNDGSGITNLFANITDRWSADNPTNQDVFYPRLHHGNNANQNNMKTSTWWQKDVSFLRLKQLTIAYQLPKKLINQTFLKSARIYVMGTNLLTFSKFKLWDPELNTNNGTAYPNVRTYSVGVNVSF	not soluble
MQLKTEYGKIDPYITKDGSIIRELMHPAIHGNSGQSLAEATVPAGGQTMLHKHAVAEEIYHITEGCGIMTLGGQEFEIRKGDTVCILPGTPHRIMNTGEKELKILCCCAPAYSHEDTELMKLEHHHHHH	soluble
MMKKFIAPLLALLVSGCQIDPYTHAPTLTSTDWYDVGMEDAISGSAIKDDDAFSDSQADRGLYLKGYAEGQKKTCQTDFTYARGLSGKSFPASCNNVENASQLHEVWQKGADENASTIRLN	soluble
MKLKQLEGLLGDLEQFSNPKNRSVIGFDIDPESLETATLNAEELEVEIDFVQCDITKLELKGLIVDTVVMNPPFGTRKKGADMEFLSAAMKVASKAVYSLHKTSTRELRYDLPKLYKFHKRKEVDIAVDLWRFEPRQN	soluble
MSLTDLNRTDLNRTDLNRTDLNRTDLNRTALPSRTDGTVEKTDTLVVGAGQAGVAMSEHLSRLGVPHLVLERNRIAEAWRSGRWDSLVANGPAWHDRFPGMEFDIDPDGFPGKDQVAAYFEAYAKKFDAPIRTGVEVRKVVRNVGRPGFTVETSAGTIEANRVVAATGPFQRPVIPPIAPRDERIRQIHSAHYYNPQQLPEGAVLVVGAGSSGVQIADELQRAGRQVYLSVGAHDRPPRSYRNRDFCWWLGVLGEWDAEVAKPGREHVTIAVSGARGGHTVDFRALAHQGVTLVGLTESFVDGVATFRPDLAENLARGDENYLALLDAADAYIARNGLDLPEEPEARRRLPDPQCVTDPILELDLAEAGVGSIIWATGYAVDFGWLQVDAFDRDGKPRHQRGVSSEPGVYFIGLPWLSRRGSSFIWGVWHDARHVADHIAIQRKYLAYRDAAQRQEQDRASQAPQTSLQEVSEGHHHHHH	soluble
MGSDKIHHHHHHMELLNSMSKSLDQLLSLVNHSEIASIKATLSKIIEVIHNPESSVMDLKNLIEIDPPLAANVLRRANSAFYGMRRGIHSIMDAIIFIGFDAVKELTLNQKFFELFQKNGVEIHGYSRRVLWEHSIGVALCGKLIYRREFRKNGGDMYTAGLIHDIGIIVEDQFLHAELLSILADKEEHERDLHSAEADVLGYCHEDIGKRLAEDWNFPEELCLVLGEAERPETSEGPRLLLADTLYVANCACQLRKVGFSELGRLDRPAYEDCLNRLRIKERALDFIMDEVNAQIALMKNDGWF	not soluble
WDPPYLQIAFDNPNLEFVLSAISEIPKSDHVIIEAGTPLIKRYGTDVISKIRQVRPDAFIVADLKTLDTGNLEARMVADAAGDAIVVSALAPISTIDKLIEEAHKTGIYAVMDTLNQQDPISVLKQLKVMPDVIELHRGIDIEGTEHAWGNIGEIKKIAPKALVAVAGGVRLDKVPVALSQGADILVVGRAITNAKDVREMAEQFINSLNK	soluble
GPGYNEPQDKKTMMMNEEDDGNGMDELLAVLGYKVRSSEMADVAQKLEQLEVMMSNVQEDDLSQLATETVHYNPAELYTWLDSMLTDLNPPSSNAEYDLKAIPGDAILNQ	soluble
EPPADGGQIKGVGSGRCLDVPDASTSDGTQLQLWDCHSGTNQQWAATDAGELRVYGDKCLDAAGTSNGSKVQIYSCWGGDNQKWRLNSDGSVVGVQSGLCLDAVGNGTANGTLIQLYTCSNGSNQRWTRT	soluble
MAHHHHHHMSTAKSFPMAQLSTRAQYSRMQREFVQLQRQENPRNINFTTSLKNRHKNRYLDILANEETIYPPVLKAVGAQPGRYPYINGNLIDLDLPHTFVACQAPVPQGVPDFLETLSEKKVDLVVMLTKLREGGVLKAERYWPEEEEDSLSFPESGHDAIKVTRDAEASYEVDAELDIVRRPLVIHVPGKPMHRVLQVQYVGWPDHGVPESAASFDELLSVIKNCVTTSPILVHCSAGIGRTGTLIGAYAALLHIERGILTDSTVYSIVAAMKQKRFGMVQRLEQYAVIYMTVLGRLGVDISGLVSTLNLKA	soluble
MSLTGGISAFGRMVWEGIQIAHEEKPTVLGEEVELVLLDTRSEKTEAANAAARAIDKEKVLAIIGEVASAHSLAIAPIAEENKVPMVTPASTNPLVTQGRKFVSRVCFIDPFQGAAMAVFAYKNLGAKRVVVFTDVEQDYSVGLSNFFINKFTELGGQVKRVFFRSGDQDFSAQLSVAMSFNPDAIYITGYYPEIALISRQARQLGFTGYILAGDGADAPELIEIGGEAVEGLLFTTHYHPKAASNPVAKKFVEVYKEKYGKEPAALNALGYDAYMVLLDAIERAGSFDREKIAEEIRKTRNFNGASGIINIDENGDEGHHHHHH	not soluble
MNPLVIKLGGVLLDSEEALERLFTALVTYREKHERPLVIMHGGGCLVDELMKRLALPVVKKNGLRVTPADQIDIITGALAGTANKTLLAWAVKHQINAVGLCLADGNTVTVTLLDAELGHVGKAQPGSAALVQTLLAAGYMPIISSIGITVEGQLMNVNADQAATALAATLGADLILLSDVSGILDGKGQRIAEMTAQKAEQLIAQGIITDGMVVKVNAALDAARSLGRPVDIASWRHSEQLPALFNGVPIGTRISV	not soluble
MTKLGLGLSGDLGAQEIVRMLDLQPHPEGGWYRQTFQDAPGPDGRAASTCIYYLLEAEQMSAWHRVDAVETWHYYAGAPISLTLSPPDGKGASAYVLGPDLRAGCRPQVIVPTLWWQTAVSLGAWTLVGCTVAPGFRFEGFEMAPPDWTPSTGLEHHHHHH	soluble
MFGFPTATLLDCHGRYAQNVAFFNVMTEAHHKYDHSEATGSSSWDIQNSFRREKLEQKSPDSKTLQEDSPGVRQRVYECQECGKSFRQKGSLTLHERIHTGQKPFECTHCGKSFRAKGNLVTHQRIHTGEKPYQCKECGKSFSQRGSLAVHERLHTGQKPYECAICQRSFRNQSNLAVHRRVHSGEKPYRCDQCGKAFSQKGSLIVHIRVHTGLKPYACTQCRKSFHTRGNCILHGKIHTGETPYLCGQCGKSFTQRGSLAVHQRSCSQRLTL	soluble
MGSDKIHHHHHHMKFSEPLVEGRLIRRYKRFLADVQLPDGTEVTAHCPNTGSMLGCQPENARVWLSRSDNPKRKLQYTWELVETEPGVLACVNTVRPNAQARAAIEAGVVQSLAGYAQCRAEVRYGSEKSRIDLLLSGHDHDPDAWVEVKNVTLAEGGEGYFPDAVTERGQKHLRELMAQVQNGDRAVLFFVVNHTGIEQVRPADHIDARYGQLLREACEAGVEVIAYRAALAGEDGDPSGRLELVEEVPVSLEP	not soluble
MGSDKIHHHHHHMKPPIQLPLGVRLRDDATFINYYPGANAAALGYVERLCEADAGWTESLIYLWGKQGVGRSHLLQAATHRFQQRGEPAVYLPLAQLLDRGVELLDYLAQYELVCIDDLHVIAGKADWEEAMFHLFNRLRDSGRRLLLAASASPRELPIKLPDLKSRLTLALVFQMRGLSDEDKLRALQLRASRRGLHLTDEVGHFILTRGARSMSALFDLLERLDQASLQAQRKLTIPFLKETLGW	not soluble
MGSDKIHHHHHHMQRIAENYDALPRQLKNVATYIEQHRSSVMVDRTSDIAASCGVHPSAVVRFAQRFGFSGFSDLQAVFRQAYTGQGSSSPSYQQRIRKLIDEKPGALSGGSVAREFIAASRGGLEELEAGLDDKQFDAAVKMLQQADNIYVIGVRRSFPVASYIVYALQHTPKRVHLVSGFGGMYREQIRSVKKGDVVIAISFAPYGKETQYCLRVAHHHQARTLVITDSQLSPLARYATTQLYVKEGSAFAFRSLTSTICLCQALFIALAYKLELNVEESKDTGGYDD	not soluble
MSLAQLEHALQHDLQRLAHGGEPWVRPRVHPAGHVYDVVIVGAGQSGLGAAFALQRERVHNVLVIDENPPGQEGPWVTYARMQTLRTPKQITSIDLGVPTLTFRAWWEAQHGAAGWDALDKIPRGTWMDYLRWYRAALRLPVRNATQLVRIEPDAAPGIHRLHLAMGAPLMARKIILATGIQGGGQWQVPEWITQALPAQRYAHTSGPIDYAALAGKRVGILGGGASAFDNACFALDQGVARAEVFVRRAALPRVNPIRHMEQAGIIPRFAALPDADKYRMMASFFGRNQPPTNDTFQRACAHAGFALHLDAPWLGVEEHNDVVVVRTPQGEHRFDFLAIATGLVTDPRLRPELAALSGRIACWADRYQAPPGQANPVLDAHPYLGPGFELLPRTPDDAAAVDGLFAFNYSALINHGLSAAALSGLKVALPRLARAVADQLFLDDRQAMVEAYLGYDQAEFVGQWPQPTQAVALEHHHHHH	soluble
MSAEGLDKDFCGAIIPDSFFPIEKLRNYTDMGIIREFAKGSAIIMPGEDTTSMIFLMDGKIKLDIIFEDGSEKLLYYAGSNSLIGRLYPTGNNIYATAMEQTRTCWFSEECLRVIFRTDEDMIFEIFKNYLTKVAYYARQVAEINTYNPTIRILRLFYELCSSQGKRVGDTYEITMPLSQKSIGEITGAHHVTVSKVLACLKKENILDKKKNKFIVYNLEELKHLSEQTSYY	soluble
MGSDKIHHHHHHMLQMIPARPSRALASLSEAYEECRQITARYAKTFYLGTLLMPEAKRQAIWAIYVWCRRTDELVDGPQAAQTNFATLDAWERRLERLFAGEPEDDCDVALVDTLARYPLDIQPFRDMIEGQRMDLLQNRYSTFEDLYTYCYRVAGTVGLMSQPVMGIESTNSRAPWDPTTPPDPTQEALALGIANQLTNILRDVGEDARRGRIYLPQEELAQFNYSEQDLFNGVIDDRWRAFMQFQLDRARDYFEQAERGIRQLSHDARWPVWASLMLYREILDVIEQNNYDVFRKRAYVPTWRKLCSLPVAMLRATVL	not soluble
MELLRPEATVLSLGRRVLSFDREGRPYHYFREGKTYKRALDGSLHLRYREGERRRRRLAPEEALGVYQEVLDLAEAHLRDERRREEVLRWTPEGLLDPTPYRRAYAWPVSILPPDAYLSVVLQATTGCTWNRCAFCSFYQDRPFQKRTPEAFREHIQAVLALLGRGRLLRRGVFLADGNALALSEPLLPLLELVRAHFPGEPVMGFLDLFTGLKKAPSWWERLGGMGLRRVYIGLETGHAPLLALLRKPGHPKEVLPLVRALKSSGLSVGVILMVGSGGKAFAEAHFRESLALLAELPLGRGDVVYLSPFREDPGTPYAALGLAPLEDLEGELQRWAQAVRRLGLRASRYEIRE	soluble
MPIIRPEELPKLMRTISMSNLSIPTRCLLEWQLLTLIRPAEASATAWSEIDIENKQWCIPAERMKAKRDHIVPLSEQALELLEIMRPISGNRQYVFPSRNDPRKPMNSQTANAALKRIGYSGKLVAHGLRSIASTAMNEAGFNADVIEAALAHSDKLEHHHHHH	not soluble
